Test results taken from paper PMC8797470, “Disruption of the pentraxin 3/CD44 interaction as an efficient therapy for triple‐negative breast cancers” (Clinical and Translational Medicine, 2022).

Biological target: T1, full-length PTX3 (#1826-TS; R&D Systems) (UniProt P26022 18-381)
T1 construct: bought protein; source: bought: R&D Systems (#1826-TS)
Assay: SPR; BIAcore 3000; full-length PTX3 amine-coupled to a CM5 chip (4000-6000 RU); N-terminal CD44 as analyte; PBS pH 7.2, 10 μl/min, 1 min association, 2 min dissociation; 1:1 Langmuir model
Details: both partners purified

T1 sequence (P26022 18-381): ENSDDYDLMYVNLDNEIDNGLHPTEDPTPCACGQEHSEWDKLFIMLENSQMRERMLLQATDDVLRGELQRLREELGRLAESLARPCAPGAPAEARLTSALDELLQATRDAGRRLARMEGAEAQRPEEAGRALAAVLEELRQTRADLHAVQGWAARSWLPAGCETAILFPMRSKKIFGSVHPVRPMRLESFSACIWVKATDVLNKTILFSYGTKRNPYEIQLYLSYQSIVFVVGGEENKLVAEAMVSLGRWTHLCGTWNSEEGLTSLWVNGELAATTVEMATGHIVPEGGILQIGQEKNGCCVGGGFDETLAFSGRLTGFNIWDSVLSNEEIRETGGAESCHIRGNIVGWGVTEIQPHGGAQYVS

B1: N-terminal of CD44 (#CD44-3961H; Creative Biomart) (domain or fragment)
chain: QIDLNITCRFAGVFHVEKNGRYSISRTEAADLCKAFNSTLPTMAQMEKALSIGFETCRYGFIEGHVVIPRIHPNSICAANNTGVYILTSNTSQYDTYCFNASAPPEEDCTSVTDLPNAFDGPITITIVNRDGTRYVQKGEYRTNPEDIYPSNPTDDDV
modifications: Bought protein with limits not printed. Limits are the conventional N-terminal hyaluronan-binding domain (Link domain plus flanks, mature start 21 to 178). This range covers the predicted PTX3 …
Question: With B1 as the binder, how does the Kd read?
Answer: The Kd was 21 nM.

Question: And the koff?
Answer: The koff was 2.43e-06 s⁻¹.

Question: And the kon?
Answer: The kon was 130 M⁻¹ s⁻¹.
